Where two headings read alike, the source gives them in different places. Each block holds one molecule with its values, some of them ahead of it.
What was measured:
interleukin-6 (IL-6) [1] = molecular target: interleukin-6 (IL-6) (UniProt P05231); experiment: BLI (Octet), IL-6 immobilized on the biosensor
interleukin-6 (IL-6) [2] = molecular target: interleukin-6 (IL-6) (UniProt P05231); experiment: ELISA on IL-6
interleukin-6 (IL-6) [3] = molecular target: interleukin-6 (IL-6) (UniProt P05231); experiment: cell-based or functional assay
interleukin-11 (IL-11) [4] = molecular target: T1, interleukin-11 (IL-11) (UniProt P20809); experiment: ELISA on IL-11
T1 sequence (looked up): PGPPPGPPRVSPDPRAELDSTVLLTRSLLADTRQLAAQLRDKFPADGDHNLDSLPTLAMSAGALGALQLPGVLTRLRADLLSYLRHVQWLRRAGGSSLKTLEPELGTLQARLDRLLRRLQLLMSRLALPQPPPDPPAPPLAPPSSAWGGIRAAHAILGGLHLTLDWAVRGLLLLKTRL

interleukin-11 (IL-11) [5] = molecular target: T1, interleukin-11 (IL-11); experiment: cell-based or functional assay
interleukin-11 (IL-11) [6] = molecular target: T2, interleukin-11 (IL-11) (UniProt P20809 22-199, limits assumed); experiment: cell-based or functional assay
T2 sequence (looked up): T1 sequence (looked up)

interleukin-11 (IL-11) [7] = molecular target: T2, interleukin-11 (IL-11); experiment: ELISA on IL-11
Description: Binding of anti-IL-11 Multabodies to IL-11 was assessed using an enzyme-linked immunosorbent assay (ELISA).

interleukin-11 (IL-11) [8] = molecular target: T2, interleukin-11 (IL-11); experiment: ELISA
[9] = molecular target: bovine serum albumin (BSA) (bovine, UniProt P02769 25-607); experiment: ELISA
interleukin-6 (IL-6) [10] = molecular target: T3, interleukin-6 (IL-6) (UniProt P05231 30-212); experiment: ELISA on IL-6
interleukin-6 (IL-6) [11] = molecular target: T3, interleukin-6 (IL-6); experiment: cell-based or functional assay
interleukin-6 (IL-6) [12] = molecular target: T3, interleukin-6 (IL-6); experiment: cell-based or functional assay; remark: listed apart in the source
interleukin-6 (IL-6) [13] = molecular target: T3, interleukin-6 (IL-6); experiment: BLI (Octet), IL-6 immobilized on the biosensor
Excerpt: This method measures binding reactions at the surface of a fiber optic biosensor functionalized with an immobilized target moiety (e.g., IL-6).

interleukin-6 (IL-6) [14] = molecular target: interleukin-6 (IL-6) (UniProt P05231); experiment: cell-based or functional assay; remark: listed apart in the source
interleukin-6 (IL-6) [15] = molecular target: T3, interleukin-6 (IL-6); experiment: cell-based or functional assay; remark: listed apart in the source

Chain of bovine serum albumin (BSA) (P02769 25-607 limits assumed): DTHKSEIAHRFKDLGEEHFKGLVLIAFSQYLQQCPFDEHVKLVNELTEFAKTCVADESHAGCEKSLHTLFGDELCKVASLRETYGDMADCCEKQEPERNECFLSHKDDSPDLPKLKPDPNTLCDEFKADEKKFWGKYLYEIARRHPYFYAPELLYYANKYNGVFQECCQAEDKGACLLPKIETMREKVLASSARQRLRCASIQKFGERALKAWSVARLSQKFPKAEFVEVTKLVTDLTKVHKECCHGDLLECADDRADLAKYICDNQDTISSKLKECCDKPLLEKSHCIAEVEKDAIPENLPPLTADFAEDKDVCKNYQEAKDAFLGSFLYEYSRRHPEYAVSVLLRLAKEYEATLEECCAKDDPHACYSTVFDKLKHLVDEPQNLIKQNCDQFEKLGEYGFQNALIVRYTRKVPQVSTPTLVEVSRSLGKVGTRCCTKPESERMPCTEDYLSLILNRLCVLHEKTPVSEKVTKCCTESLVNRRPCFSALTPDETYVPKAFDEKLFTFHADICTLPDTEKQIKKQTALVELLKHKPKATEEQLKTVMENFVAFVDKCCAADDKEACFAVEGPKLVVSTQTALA
Chain of interleukin-6 (IL-6) (UniProt P05231) (P05231 30-212 limits assumed): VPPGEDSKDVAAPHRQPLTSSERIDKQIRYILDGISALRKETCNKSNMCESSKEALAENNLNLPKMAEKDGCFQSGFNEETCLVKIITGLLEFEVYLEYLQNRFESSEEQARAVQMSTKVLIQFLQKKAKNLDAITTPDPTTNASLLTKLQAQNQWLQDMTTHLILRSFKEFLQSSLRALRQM

Kd (interleukin-6 (IL-6) [1]): < 0.001 nM
EC50 (interleukin-6 (IL-6) [2]): 0.0353 nM
Fold change (IgG vs. Multabody), IL-6 Bioassay IC50 (interleukin-6 (IL-6) [3]): 26 fold
Fold change, INA-6 proliferation IC50 (IgG against MB) (interleukin-6 (IL-6) [3]): 9 fold
IC50 (nM), proliferation of IL-6-dependent INA-6 cells (CellTiter-Glo) (interleukin-6 (IL-6) [3]): 0.67 nM
IC50 (pM), IL-6 Bioassay (luciferase reporter cells) (interleukin-6 (IL-6) [3]): 44 pM
Molecule: Siltuximab Multabody (MB) (from UniProt P04945 1-108)

EC50 (interleukin-11 (IL-11) [4]): 0.659 nM
fold better binding than the parental IgG control (interleukin-11 (IL-11) [4]): 3 to 4 fold
Fold change, IL-11-dependent pSTAT3/STAT3 IC50 (IgG against MB), Panc-1 cells (interleukin-11 (IL-11) [5]): 6 fold
IC50 (nM), IL-11-dependent pSTAT3/STAT3 (Meso Scale Discovery), Panc-1 cells (interleukin-11 (IL-11) [5]): 0.13 nM
B1: anti-IL-11 Multabody (MB), source antibody TPP-29536 (protein, part only; not given: Fab constants, linkers, ferritin carriers, not shown: another chain or arm of the molecule; a dimerising Fc or GST; large carriers; small tags and cut ends)
VH: EVQLLESGGGLVQPGGSLRLSCAASGFTFSSYGMHWVRQAPGKGLEWVAVISYDGSYKYYADSVKGRFTISRDNSKNTLYLQMNSLRAEDTAVYYCAAGVPDYWGQGTLVTVSS
VL: QSVLTQPPSASGTPGQRVTISCSGSSSNIGSDYDVHWYQQLPGTAPKLLIYSNEERPSGVPDRFSGSKSGTSASLAISGLRSEDEADYYCSAWDSSLSGPVFGGGTKLTVL

IC50 (nM), IL-11-dependent pSTAT3/STAT3 (Meso Scale Discovery), Panc-1 cells (interleukin-11 (IL-11) [6]): 0.79 nM
EC50 (interleukin-11 (IL-11) [7]): 2.71 nM
B2: TPP-29536 IgG (antibody, V domains shown)
VH: B1 VH
VL: B1 VL
notes: Tested as parental IgG; also called anti-IL-11 IgG; parental IgG control

binding result (interleukin-11 (IL-11) [8]): no binding
binding result [9]: no binding
EC50 (interleukin-6 (IL-6) [10]): 0.154 nM
IC50 (nM), proliferation of IL-6-dependent INA-6 cells (CellTiter-Glo) (interleukin-6 (IL-6) [11]): 5.88 nM
IC50 (pM), IL-6 Bioassay (luciferase reporter cells) (interleukin-6 (IL-6) [12]): 1150 pM
Kd (interleukin-6 (IL-6) [13]): < 0.001 nM
B3: siltuximab immunoglobulin (IgG) (antibody, V domains shown)
VH: EVQLVESGGKLLKPGGSLKLSCAASGFTFSSFAMSWFRQSPEKRLEWVAEISSGGSYTYYPDTVTGRFTISRDNAKNTLYLEMSSLRSEDTAMYYCARGLWGYYALDYWGQGTSVTVSS
VL: QIVLIQSPAIMSASPGEKVTMTCSASSSVSYMYWYQQKPGSSPRLLIYDTSNLASGVPVRFSGSGSGTSYSLTISRMEAEDAATYYCQQWSGYPYTFGGGTKLEIKR
notes: Tested as parental IgG; also called siltuximab IgG; CNTO-328

Kd (interleukin-6 (IL-6) [1]): < 0.001 nM
Fold change (IgG vs. Multabody), IL-6 Bioassay IC50 (interleukin-6 (IL-6) [14]): 6 fold
IC50 (pM), IL-6 Bioassay (luciferase reporter cells) (interleukin-6 (IL-6) [14]): 100 pM
EC50 (interleukin-6 (IL-6) [2]): 0.0543 nM
B4: Clazakizumab Multabody (MB) (protein, part only; not given: Fab constants, linkers, ferritin carriers, not shown: another chain or arm of the molecule; a dimerising Fc or GST; large carriers; small tags and cut ends)
VH: EVQLVESGGGLVQPGGSLRLSCAASGFSLSNYYVTWVRQAPGKGLEWVGIIYGSDETAYATSAIGRFTISRDNSKNTLYLQMNSLRAEDTAVYYCARDDSSDWDAKFNLWGQGTLVTVSS
VL: AIQMTQSPSSLSASVGDRVTITCQASQSINNELSWYQQKPGKAPKLLIYRASTLASGVPSRFSGSGSGTDFTLTISSLQPDDFATYYCQQGYSLRNIDNAFGGGTKVEIK

binding result (interleukin-11 (IL-11) [8]): no binding
binding result [9]: no binding
EC50 (interleukin-6 (IL-6) [10]): 0.176 nM
IC50 (pM), IL-6 Bioassay (luciferase reporter cells) (interleukin-6 (IL-6) [12]): 604 pM
Kd (interleukin-6 (IL-6) [13]): < 0.001 nM
B5: clazakizumab IgG (antibody, V domains shown)
VH: B4 VH
VL: AIQMTQSPSSLSASVGDRVTITCQASQSINNELSWYQQKPGKAPKLLIYRASTLASGVPSRFSGSGSGTDFTLTISSLQPDDFATYYCQQGYSLRNIDNAFGGGTKVEIKR
notes: Tested as parental IgG

Kd (interleukin-6 (IL-6) [1]): < 0.001 nM
Fold change (IgG vs. Multabody), IL-6 Bioassay IC50 (interleukin-6 (IL-6) [14]): 60 fold
Fold change (IgG/MB), IL-6-induced pSTAT3/STAT3 IC50, HCT-15 cells (interleukin-6 (IL-6) [14]): 7 fold
Fold change (IgG/MB), IL-6-induced pSTAT3/STAT3 IC50, THP-1 cells (interleukin-6 (IL-6) [14]): 8 fold
Fold change, INA-6 proliferation IC50 (IgG against MB) (interleukin-6 (IL-6) [14]): 16 fold
IC50 (nM), IL-6-induced pSTAT3/STAT3 (Meso Scale Discovery), HCT-15 cells (interleukin-6 (IL-6) [14]): 0.03 nM
IC50 (nM), IL-6-induced pSTAT3/STAT3 (Meso Scale Discovery), THP-1 cells (interleukin-6 (IL-6) [14]): 0.06 nM
IC50 (nM), proliferation of IL-6-dependent INA-6 cells (CellTiter-Glo) (interleukin-6 (IL-6) [14]): 0.33 nM
IC50 (pM), IL-6 Bioassay (luciferase reporter cells) (interleukin-6 (IL-6) [14]): 9.4 pM
EC50 (interleukin-6 (IL-6) [2]): 0.0454 nM
B6: Olokizumab Multabody (MB) (protein, part only; not given: Fab constants, linkers, ferritin carriers, not shown: another chain or arm of the molecule; a dimerising Fc or GST; large carriers; small tags and cut ends)
VH: EVQLVESGGGLVQPGGSLRLSCAASGFNFNDYFMNWVRQAPGKGLEWVAQMRNKNYQYGTYYAESLEGRFTISRDDSKNSLYLQMNSLKTEDTAVYYCARESYYGFTSYWGQGTLVTVSS
VL: DIQMTQSPSSLSASVGDRVTITCQASQDIGISLSWYQQKPGKAPKLLIYNANNLADGVPSRFSGSGSGTDFTLTISSLQPEDFATYYCLQHNSAPYTFGQGTKLEIK

binding result (interleukin-11 (IL-11) [8]): no binding
binding result [9]: no binding
EC50 (interleukin-6 (IL-6) [10]): 0.201 nM
IC50 (nM), proliferation of IL-6-dependent INA-6 cells (CellTiter-Glo) (interleukin-6 (IL-6) [11]): 5.29 nM
IC50 (pM), IL-6 Bioassay (luciferase reporter cells) (interleukin-6 (IL-6) [12]): 566 pM
IC50 (nM), IL-6-induced pSTAT3/STAT3 (Meso Scale Discovery), HCT-15 cells (interleukin-6 (IL-6) [15]): 0.2 nM
IC50 (nM), IL-6-induced pSTAT3/STAT3 (Meso Scale Discovery), THP-1 cells (interleukin-6 (IL-6) [15]): 0.48 nM
Kd (interleukin-6 (IL-6) [13]): < 0.001 nM
B7: olokizumab IgG (antibody, V domains shown)
VH: B6 VH
VL: DIQMTQSPSSLSASVGDRVTITCQASQDIGISLSWYQQKPGKAPKLLIYNANNLADGVPSRFSGSGSGTDFTLTISSLQPEDFATYYCLQHNSAPYTFGQGTKLEIKR
notes: Tested as parental IgG; also called CDP6038

Source: patent US20260209339A1 (RADIANT BIOTHERAPEUTICS, published 2026)
